Assay results reported in article PMC3072145.

Key:
Hfq wt = Hfq wt (Escherichia coli, UniProt P0A6X3 1-102); assay: analytical ultracentrifugation
Hfq-NA = Hfq-NA (Escherichia coli, UniProt P0A6X3 1-102); assay: analytical ultracentrifugation

B1: FAM-rA18 (ssRNA)
RNA: AAAAAAAAAAAAAAAAAA
B1: binds (Hfq wt); binds (Hfq-NA).
